Drawing on the RNAGym collection of RNA variant scans (doi:10.7554/elife.80360), this text covers self-cleavage for 32 variants.

B1: HDV Ribozyme (parent)
chain: GGCCGGCAUGGUCCCAGCCUCCUCGCUGGCGCCGGCUGGGCAACAUUCCGAGGGGACCGUCCCCUCGGUAAUGGCGAAUGGGACCCA

In the data set the parent is B1. In words: self-cleavage, relative activity (ratio to wild type); higher = more cleavage; co-transcriptional.
As for GGCCGGCAUGGUCCCAGCCUCCUCGCUGGCGCCGGCUGGGCAACAUUCCGAGGGUACCGUCCCCUCGGUAAUGGCGAAUGGGAUCCA [G55U C84U], the self-cleavage was found to be 0.743. As for GGCCGGCAUGGUCCCAGCCUCCUCGCGGGCGUCGGCUGGGCAACAUUCCGAGGGGACCGUCCCCUCGGUAAUGGCGAAUGGGACCCA [U27G C32U], the self-cleavage worked out at 0.831.

As for GGCCGGCAUGGUCCCACCCUCCUCGGUGGCGCCGGCUGGGCAACAUUCCGAGGGGACCGUCCCCUCGGUAAUGGCGAAUGGGACCCA [G17C C26G], the self-cleavage turned out to be 0.0852. The figure for GCCCGGCAUGGUCCCAGCCUCCUCGCUGGCGCCGGCUGGGCAACAUUCCGAGGGGACCGUCCCCUCGGUAAUGGCGAAUGGGACCCU [G2C A87U] is 0.0825; for GGCCGGCAUGGUCCCAGCCUCCUCCCUGGCGCCGGCUGGGCAACAUUCCGAGGGGACCGUCCCCUCGGUAAUGGCAAAUGGGACCCA [G25C G76A] it is 0.0875; for GGCCGGCAUGGUCCCAGCCUCCUCGCUGGCGCCGGCUGGGCAACAUUCCGAGGGGGCCGUCCCCUCGGUAAUGGCGAAUGCGACCCA [A56G G81C] it is 0.198. Take GGCCGGCAUGCUCCCAGCCUCCUCGCUGGCGCCGGCUGGGCAACAUUCCGAGGGGACCGUCCCCUCGUUAAUGGCGAAUGGGACCCA [G11C G68U]: the self-cleavage came to 0.291.

Consider GGCCGGCCUGGUCCCAGCCUCCUCGCUGGCGCCGGCUGGGCAACAUUCCGAGGGGACCGUCCCCUUGGUAAUGGCGAAUGGGACCCA [A8C C66U], for which the self-cleavage amounted to 0.76.

As to GGCCGGCAUGGUCCCAGCCUCCUCGCCGGCGCCGGCUGGGCAACAUUCCGAGUGGACCGUCCCCUCGGUAAUGGCGAAUGGGACCCA [U27C G53U], the self-cleavage is 0.746. GGCCGGCCUGGUCCCAGCCUCCUCGCUGGCGCCGGCUGGGCAACAUUCCGAGGGGACCGUCCUCUCGGUAAUGGCGAAUGGGACCCA [A8C C63U]: the self-cleavage amounted to 0.633. The result for GGCCGGCAUGGUCCCAGCCUCCUCGCUGGCGCCGGCUGGGCAACAUUCCGAGGGGACCCUCCCCUCGGUCAUGGCGAAUGGGACCCA [G59C A70C] reads 1.07. Regarding GGCCGGCAUGGUCCCAGCCUCCUCGCUGGCGCCGGCUGGGCAACAUUCCGAGGGGACCGUCCCCUCGGUAAUUGGGAAUGGGACCCA [G73U C75G], the self-cleavage was found to be 0.086. The result for GGCCGGCAUGGUCCCAGCCUCCUCGCUGGCGCCGGCUGGGCAACACUCCGAGGGGACCGUCCCCUCGGUAAAGGCGAAUGGGACCCA [U46C U72A] reads 0.504; that for GGUCGGCAUGGUCCCAGCCUCCUCGCUGGCGCCGGCUGGGCAACAUUCCGAGGGGACCGUCCCCUCGGUAAUGGCGAAUGCGACCCA [C3U G81C], 0.0563; that for UGCCGGCAUGGUCCCAGCCUCCUCGCUGGCGCCGGCUGGGCAACAUUACGAGGGGACCGUCCCCUCGGUAAUGGCGAAUGGGACCCA [G1U C48A], 0.465. As to GGCCAGCAUGGUCCCAGCCUCCUCGCUGGCGCCGGCUGGGCAACAUUCCGAGGGGACCGUCCCCUCGGUCAUGGCGAAUGGGACCCA [G5A A70C], the self-cleavage was 0.166. In the case of GGCCGGCAUGGUCCCAGCCUCCUCGCUGGCGCCGGCUGGGCAACAUUCCGACGGGACCGUCGCCUCGGUAAUGGCGAAUGGGACCCA [G52C C62G], the self-cleavage is 0.383. The result for GCCCGGCAUGGUCCCAGCCUCCUCGCUGGCGCCGGCUGGGAAACAUUCCGAGGGGACCGUCCCCUCGGUAAUGGCGAAUGGGACCCA [G2C C41A] reads 0; that for GGCCGGCAUGCUCCCAGCCUCCUCGCUGGCGCCGGCUGGGCAACACUCCGAGGGGACCGUCCCCUCGGUAAUGGCGAAUGGGACCCA [G11C U46C], 0.123; that for GGCCGGCAUGGUCCCAGGAUCCUCGCUGGCGCCGGCUGGGCAACAUUCCGAGGGGACCGUCCCCUCGGUAAUGGCGAAUGGGACCCA [C18G C19A], 0.119.

With CGCCGGCAUGGUCCCAGCCUCCUCGCUGGCGCCGGCUGGGCAACAUUCCGAGGGGACCGUCCCCUAGGUAAUGGCGAAUGGGACCCA [G1C C66A], the self-cleavage turned out to be 0.19.

Regarding GGCCGGCAUGGUCCCAGCCUCCUCGCUGGCGACGGCUGGGCAACAUUCCUAGGGGACCGUCCCCUCGGUAAUGGCGAAUGGGACCCA [C32A G50U], the self-cleavage came to 0.178. The figure for GUCCGGCAUGGUCCCAGCCUCCUUGCUGGCGCCGGCUGGGCAACAUUCCGAGGGGACCGUCCCCUCGGUAAUGGCGAAUGGGACCCA [G2U C24U] is 0.0784; for GGCCGGCAUGGUCCCAGCCUACUCGCUGGCGCCGGCUGGGCAACAUUCCGAGGGGACCGUCCCCUCGGUAAUGGCGAAUGCGACCCA [C21A G81C] it is 0.0923; for GGCCGGCAUGGUCCCAGCCUCCUCGCUGGCCCCGGCUGGGCAACAUUCCGAGGGGACCGUCCCCUCGGUAAUGGCGAAUGUGACCCA [G31C G81U] it is 0.086. The figure for GGCCGGCAUGGUCCCAGCCUCCUGGCUGGCGCCGGCUGGGCAACAUUCCGAGGGGACCGUCCCGUCGGUAAUGGCGAAUGGGACCCA [C24G C64G] is 0.131; for GGCCGGCAUGGUCCCAGCCUCCUCGCUGGCGCCGGCUGGGCAACAUUCCGAGGGGACCGUGCCCUCGGUAAUGGCGAAUGGGACCCA [C61G] it is 0.986. Regarding GGCCGGCAUGGUCCCAGCCUCCUCGCUGGCGCCGGCUGGGCAACAUUCCGAGGGGACCGUCACCUGGGUAAUGGCGAAUGGGACCCA [C62A C66G], the self-cleavage was 0.623.

For the variant GGCCGGCAUGGUCCCAGCCUCCUCGCUGGCGCCGGCUGGGCAACGUUCCGAGGGGACCGUCCCCUCGGUAAUGGCGGAUGGGACCCA [A45G A77G], the self-cleavage is 0.867. In the case of GGCCGGCAUGGUCCCAGCCUCCUCGCUGGCGCCGGCCGGGCAACAUUCCGAGGGGACCGUCCCUUCGGUAAUGGCGAAUGGGACCCA [U37C C64U], the self-cleavage came out at 1.19. On to GGCCGGCAUGGUCCCAGCCUCCUCGCUGGCGCCGGCUGGGCAACAUUACGAGGGGACCGUCCCCCCGGUAAUGGCGAAUGGGACCCA [C48A U65C], for which the self-cleavage was determined as 0.98. On to GGCUGGCAUGGUCCCAGCCUCCUCGCUGGCGCCGGCUGGGCAACAUUCCGAGGGGACCGUCCCCUCGUUAAUGGCGAAUGGGACCCA [C4U G68U], for which the self-cleavage turned out to be 0.657.
